{
  "source": "paper PMC10630141",
  "about": "“OPUS-DSD: deep structural disentanglement for cryo-EM single-particle analysis” (Nature Methods, 2023)",
  "proteins": {"B1": {"name": "ZCCHC8 (natural protein, UniProt Q6NZY4 1-707, looked up)", "chain": "MAAEVYFGDLELFEPFDHPEESIPKPVHTRFKDDDGDEEDENGVGDAELRERLRQCEETIEQLRAENQELKRKLNILTRPSGILVNDTKLDGPILQILFMNNAISKQYHQEIEEFVSNLVKRFEEQQKNDVEKTSFNLLPQPSSIVLEEDHKVEESCAIKNNKEAFSVVGSVLYFTNFCLDKLGQPLLNENPQLSEGWEIPKYHQVFSHIVSLEGQEIQVKAKRPKPHCFNCGSEEHQMKDCPMPRNAARISEKRKEYMDACGEANNQNFQQRYHAEEVEERFGRFKPGVISEELQDALGVTDKSLPPFIYRMRQLGYPPGWLKEAELENSGLALYDGKDGTDGETEVGEIQQNKSVTYDLSKLVNYPGFNISTPRGIPDEWRIFGSIPMQACQQKDVFANYLTSNFQAPGVKSGNKRSSSHSSPGSPKKQKNESNSAGSPADMELDSDMEVPHGSQSSESFQFQPPLPPDTPPLPRGTPPPVFTPPLPKGTPPLTPSDSPQTRTASGAVDEDALTLEELEEQQRRIWAALEQAESVNSDSDVPVDTPLTGNSVASSPCPNELDLPVPEGKTSEKQTLDEPEVPEIFTKKSEAGHASSPDSEVTSLCQKEKAELAPVNTEGALLDNGSVVPNCDISNGGSQKLFPADTSPSTATKIHSPIPDMSKFATGITPFEFENMAESTGMYLRIRSLLKNSPRNQQKNKKASE", "notes": "ZCCHC8 of the nuclear exosome-targeting (NEXT) complex; The complex was cross-linked with glutaraldehyde before the grids were made; ZCCHC8 forms the dimeric centre of the complex; also called ZCCHC8 center; ZCCHC8 dimeric center; source: HEK293 GnTI- cells infected with recombinant baculovirus, overexpressed separately; cell pellets of the three NEXT proteins mixed, purified as the complex …"}},
  "target": "the molecule itself",
  "test": "cryo-EM structure; NEXT complex (MTR4, RBM7, ZCCHC8) purified on poly-flag-tag beads and Superdex 200, cross-linked in a 10-30% glycerol gradient with 0.2% glutaraldehyde, dialysed into 20 mM HEPES pH 7.4, 150 mM NaCl; single-particle analysis, signal of one MTR4 helicase domain subtracted",
  "data": [
    {"protein": "B1", "values": [
      {"measurement": "stoichiometry N", "result": 2}
    ]}
  ]
}
